Measured values from the DeepSol protein solubility set.

assay: soluble on expression in E. coli; label from the status in PepcDB or PDB records

| Sequence | soluble on expression in E. coli |
| --- | --- |
| MEADRKADNGNAGFSLVCHPEERITYRVGNKVICCLDGSRIGIQFETSTAGETYEVYHCVLESKSFLEKMIVLEHTIPFFLPLSDLENDLLFSNAKKFIDNVGDLLQAYVDRKEQVRLIKELFGHQISEIYHSLPYHMIEFSMDDCDCKFVVSLRYGDLLCELPTKVRILVWPMHHLSKKQCTSPGSPAIPVRLPFAEDAFRIQSLPEAYAEIMPNMPNEIRQLFQTSPS | soluble |
| MADNGNEEDRNGYIINRTRFAADFHNRNEDLSEWEEMRGIEWDLILHSDGGQLYTQLVTRSRLQYEIPCKFLLEAQYGQVKVGENFDVTVSSRNHTFGMRIDQPADNGAIKITAYIDF | not soluble |
| MEFEFIRNTLMGEYYVKCSMGHEIVGRWLQEEIGKDPTMIAQVEALIDKAFSLPSQEHTLTGTEISLMIQGDEVLVQENALSHDYDVEMESEFDFYDAESTASCGIEDFVALIEQWKDFLNI | not soluble |
| MDTMRQRILVVDDDASLAEMLTIVLRGEGFDTAVIGDGTQALTAVRELRPDLVLLDLMLPGMNGIDVCRVLRADSGVPIVMLTAKTDTVDVVLGLESGADDYIMKPFKPKELVARVRARLRRNDDEPAEMLSIADVEIDVPAHKVTRNGEQISLTPLEFDLLVALARKPRQVFTRDVLLEQVWGYRHPADTRLVNVHVQRLRAKVEKDPENPTVVLTVRGVGYKAGPPTSGSHHHHHH | soluble |
| MAGIAMKLAKDREAAEGLGSHERAIKYLNQDYETLRNECLEAGALFQDPSFPALPSSLGFKELGPYSSKTRGIEWKRPTEICADPQFIIGGATRTDICQGALGDSWLLAAIASLTLNEEILARVVPLDQSFQENYAGIFHFQFWQYGEWVEVVVDDRLPTKDGELLFVHSAEGSEFWSALLEKAYAKINGCYEALSGGATTEGFEDFTGGIAEWYELRKPPPNLFKIIQKALEKGSLLGCSIDITSAADSEAVTYQKLVKGHAYSVTGAEEVESSGSLQKLIRIRNPWGQVEWTGKWNDNCPSWNTVDPEVRANLTERQEDGEFWMSFSDFLRHYSRLEICNLTPDTLTCDSYKKWKLTKMDGNWRRGSTAGGCRNYPNTFWMNPQYLIKLEEEDEDDEDGERGCTFLVGLIQKHRRRQRKMGEDMHTIGFGIYEVPEELTGQTNIHLSKNFFLTTRARERSDTFINLREVLNRFKLPPGEYVLVPSTFEPHKNGDFCIRVFSEKKADYQTVDDEIEANIEEIEANEEDIGDGFRRLFAQLAGEDAEISAFELQTILRRVLAKREDIKSDGFSIETCKIMVDMLDEDGSGKLGLKEFYILWTKIQKYQKIYREIDVDRSGTMNSYEMRKALEEAGFKLPCQLHQVIVARFADDELIIDFDNFVRCLVRLEILFKIFKQLDPENTGTIQLDLISWLSFSVLGKLAAALEHHHHHH | soluble |
| MFEARLTDVRANKLAQAWRLAYEQADGKRRRAMLGGLAQVGAGMQGDGAQGTRLFKRFNALPDGLRFLVALRADMLRWRKQVAGLQALDKELEALLSAWFDVGLLELRPLTWDSPASLLEKLILYEAVHEIRSWDDLRHRVAGDRRCYAYFHPQMPDVPLIFVEVAFSAQMADNVQALLDTSAPPQDLDKARWAIFYSISNTQPGLRGISFGNFLLKRVIDRLLQELPKLKFFATLSPIPGFADWLSRLDAQEVEQAVRDKARTRSGAPDGARWVARLARAATGKPSEVVQRAGLRLAARYLQAMRAGQPLDPVARFHLGNGARIERLNWAADTSAKGLAQSCGMMVNYLYELGDLDGNLARLNEGKPQVSRGIARLGAAALEHHHHHH | soluble |
| MGFVDRGGGREAKGASLRRSKNNPGASIAKNKSAKKDYTTPATRATPTPPPACLPVLKALMAAASAGATAMEATAASTVTDFEKALAAVRDAAQTGGSPYIDAAVALLSRKLEEDREGIFRRAAEEGKLAAVVCWCGEAERQSLLLNTCVQHNKLYRGTLEQQQRSSATGGGARHVHFNVDGAVVASVAAAVTTSSSSTKASILLYAVLGIHVNSIDRVNMRLHDQWVKELEANVKHSDVVGVLTGLNLSREHGTHYAQERLFKECWRVAAEVRLPLVLHLGAADAASLTETVNRAAKLLDELLAATSATADGAGAAPSAVVLHNGLRALHASTAMQQLVRAHRPAAGRTAAAVPFYVLATADGLAVAKTEGSETEVTATTDSGPSVEALAALLPPRAGLGSNSDSATTTSSGGDAAVHLSQLLIGTGAPWGTPQNLPDPYLCTLPNEPGNYAYVVQTLYDAMRAPPPPPTAAAAAAELTLADLSAIAAVNYLLAFFHECVWEQEQQQQQQRSGSDDETTADALQQQQRRWVESQQPVVVAGLADSDVKRDLEALLAEAAKERERMEQERLREEAGLAQARSEELQQKRSRRERKKNVKANNRSNFTHFRNKDFAPRQSKQEKPAHLREVVGIREGGSTDVDGRERTPSSSSAASDSGSAGGPNSLAAQVERLLKANAAHRDPECRAQRQPAGRGKGRGQNALAGSRKVGRSADMKSSEQPQQQYGAGAGGKAENGSPSDGSDDDDERYTRTRAL | not soluble |
| MGSDKIHHHHHHAGLPDNLTPVGAERAASPDGRIPAWQGGLSTAQQRLGDNGTPLDPFADEQPLYRITAANYRQYRGQLTDGQVALLKRFPASLSLPVYPTHRSVAVPDAVAASAARNAEQAQLDDQGNGVRGFTGVIAFAQPTNGLEVIWNHLTRHRNVSYSLSSDSVTPLKNGRFVLMSARQEVARPEGLANLGAGNVLYYFTYRMTAPSRLAGDAMVVHETLDQVAEPRLSWVYSASQRRVRRAPNIAYDTTGPGTAGLRTADSRDMFNGAPDRYDWKLLGKQALHVPYNCYRLASPELRYVDLIKPGHIDPAPTRYELHRVWVVEATLKPGAQHIYAKRRFYLDEDTWAILETDSYDARGELWRTSQAHGFFHPSGQVAVNAMEITYDLKSGRYHASGLINEQRRPFAFNVRTSLSYFSPGALRSFGVR | not soluble |
| MMRRILLKSIKFYRIYLSPLKRNACCKFIPTCSQYAIDAIEKYGALKGSFMAVKRILRCNPFSKGGYDPVKLEHHHHHH | not soluble |
